# Source: PMC7290415, “Functional Consequences of the Variable Stoichiometry of the Kv1.3-KCNE4 Complex” (Cells, 2020)
# T1: KCNE4-loopBAD-GFP (UniProt Q9WTW3 1-170, biotin on the loopBAD tag (BirA biotin ligase co-expressed))
# T1 construct: KCNE4; also called KCNE4-pEGFP with loopBAD; KCNE4-GFP; source: HEK-293, electroporated together with BirA, on the cell surface; not shown: loopBAD (biotin acceptor domain), N-terminal, kept
# T1 sequence (looked up): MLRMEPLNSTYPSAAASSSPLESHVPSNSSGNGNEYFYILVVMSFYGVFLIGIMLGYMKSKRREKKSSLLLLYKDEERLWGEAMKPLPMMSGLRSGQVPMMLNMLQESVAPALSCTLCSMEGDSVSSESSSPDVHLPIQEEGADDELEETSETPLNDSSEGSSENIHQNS
# Tests used:
# [1] = target: the molecule itself; assay: counting of GFP bleaching steps of single spots (TIRF microscopy); live HEK-293 cells with Kv1.3-loopBAD-GFP and BirA; biotinylated channels at the cell surface immobilised with NeutrAvidin (50 nM) on biotin-collagen-coated glass; step distribution fitted to a binomial with p = 0.67
# KCNE4-loopBAD-GFP = target: T1, KCNE4-loopBAD-GFP; assay: counting of GFP bleaching steps of single spots (TIRF microscopy); live HEK-293 cells with KCNE4-loopBAD-GFP, Kv1.3-Apple and BirA; biotinylated KCNE4 at the cell surface immobilised with NeutrAvidin (50 nM); motionless GFP spots colocalising with Kv1.3-Apple; conditions: partners not purified
stoichiometry N (KCNE4-loopBAD-GFP),Binder,stoichiometry N [1]
,"Kv1.3-loopBAD-GFP (natural protein, UniProt P15384 1-525, looked up, biotin on the loopBAD tag (BirA biotin ligase co-expressed), voltage-gated potassium channel Kv1.3; also called GFP-Kv1.3-loopBAD; pEGFP-Kv1.3 with loopBAD; source: HEK-293, electroporated together with BirA, on the cell surface; not shown: loopBAD (biotin acceptor domain), internal (first extracellular loop), kept) MTVVPGDHLLEPEAAGGGGGDPPQGGCVSGGGCDRYEPLPPALPAAGEQDCCGERVVINISGLRFETQLKTLCQFPETLLGDPKRRMRYFDPLRNEYFFDRNRPSFDAILYYYQSGGRIRRPVNVPIDIFSEEIRFYQLGEEAMEKFREDEGFLREEERPLPRRDFQRQVWLLFEYPESSGPARGIAIVSVLVILISIVIFCLETLPEFRDEKDYPASPSQDVFEAANNSTSGASSGASSFSDPFFVVETLCIIWFSFELLVRFFACPSKATFSRNIMNLIDIVAIIPYFITLGTELAERQGNGQQAMSLAILRVIRLVRVFRIFKLSRHSKGLQILGQTLKASMRELGLLIFFLFIGVILFSSAVYFAEADDPSSGFNSIPDAFWWAVVTMTTVGYGDMHPVTIGGKIVGSLCAIAGVLTIALPVPVIVSNFNYFYHRETEGEEQAQYMHVGSCQHLSSSAEELRKARSNSTLSKSEYMVIEEGGMNHSAFPQTPFKTGNSTATCTTNNNPNSCVNIKKIFTDV",4
≤ 4 KCNE4 per Kv1.3 channel,"Kv1.3-Apple (natural protein, UniProt P15384 1-525, looked up, voltage-gated potassium channel Kv1.3; also called Kv1.3 tagged with mApple; source: HEK-293, electroporated, on the cell surface) MTVVPGDHLLEPEAAGGGGGDPPQGGCVSGGGCDRYEPLPPALPAAGEQDCCGERVVINISGLRFETQLKTLCQFPETLLGDPKRRMRYFDPLRNEYFFDRNRPSFDAILYYYQSGGRIRRPVNVPIDIFSEEIRFYQLGEEAMEKFREDEGFLREEERPLPRRDFQRQVWLLFEYPESSGPARGIAIVSVLVILISIVIFCLETLPEFRDEKDYPASPSQDVFEAANNSTSGASSGASSFSDPFFVVETLCIIWFSFELLVRFFACPSKATFSRNIMNLIDIVAIIPYFITLGTELAERQGNGQQAMSLAILRVIRLVRVFRIFKLSRHSKGLQILGQTLKASMRELGLLIFFLFIGVILFSSAVYFAEADDPSSGFNSIPDAFWWAVVTMTTVGYGDMHPVTIGGKIVGSLCAIAGVLTIALPVPVIVSNFNYFYHRETEGEEQAQYMHVGSCQHLSSSAEELRKARSNSTLSKSEYMVIEEGGMNHSAFPQTPFKTGNSTATCTTNNNPNSCVNIKKIFTDV",
